Data from patent publication US9096835B2, “DNA polymerase” (Medical Research Council, priority 2003, dated 2015).
“Also recorded” adds a separate entry of the source.

Experiments:
Format in all cases: biochemical
[1] = test system: primer-template duplex with matched or mismatched 3′ terminus; assay: Steady-state extension kinetics, gel-based assay; conditions: incorporated base is dCTP
Experimental: Kinetic parameters were determined using a gel-based assay essentially as described (16). Primers 15, 16, 17 (3′ base=G, C, A respectively) were ^32P-labeled and annealed to one of template strands 18, 19, 20 (template base=C, G, A respectively) or 21 (template base C different context). Duplex substrates were used at 50 nM final concentration in 1× Taq buffer with various concentrations of enzyme and dNTP. Reactions were carried out at 60° C. for times whereby <20% of primer-template was utilized at the highest concentration of dNTP.
Extension and incorporation kinetics of M1 and M4 for a selection of mismatches were measured using a gel-based steady-state kinetic assay (Goodman) (Tables 1 & 2). M1 and M4 respectively extend a C•C mispair 390 and 75-fold more efficiently than wtTaq. […] The gain in extension efficiency derives predominantly from increased relative Vmax values for the mutant polymerases, while Km for nucleotide substrates remains largely unchanged. For most DNA polymerases the relative efficiency of extending a given mispair (f0ext) is similar to the relative efficiency of forming it (finc) (Goodman 1993, Goodman 1990, Washington 2001). Indeed, M1 and M4 respectively incorporate dCTP opposite template base C 206- and 29-fold more efficiently than wtTaq (Table 2).

[2] = test system: primers with 3′ transversion mismatches; assay: Mismatch extension PCR assay; conditions: G•A, C•C, G•G mismatched primers
Experimental: A PCR assay was used to screen and rank clones. Briefly, clones were normalized for activity in PCR with matched primers 3, 4 and activity with mismatched primers 1 and 2 (1 μM each) determined at minimal cycle number (15-25 cycles). Extension capability for different mismatches was determined by the same assay using mismatch primers 2 (C•C mismatch), 5 (A•A mismatch), 6 (G•G mismatch), 7 (G•A mismatch) with matched primer 3 or primer 1 (A•G mismatch) with matched primer 4. Incorporation of unnatural substrates in 50 cycle PCR was carried out using standard conditions and 50 μM […] dNTPs (Promega) or 50 μM FITC-12-dATP (Perkin-Elmer), Rhodamine-5-dUTP (Perkin-Elmer) or Biotin-16-dUTP (Roche) with equivalent amounts of the other 3 dNTPs (all 50 μM). Long PCR was carried out using a two-step cycling protocol as described (22) 94° C. for 2 minutes, followed by 20 cycles of (94° C. 15 sec, 68° C. 30 min) using 5 ng of phage λ DNA (New England Biolabs) template and either primers 9, 10, 11 with primer 12 or primer 13 with primers 10, 14.

[3] = test system: undamaged template; assay: Translesion replication assay, control; conditions: gel-extension assay, 60° C.
Experimental: Template primers 22 (undamaged) or 23 (containing a synthetic abasic site) were synthesized by Lofstrand Laboratories (Gaithersburg, Md.). Template primer 24 (containing a single cis-syn thymine dimer), was synthesized as described (34). Primer 25 was ^32P-labeled and annealed to one of the three templates 22, 23, 24 (at a primer template ratio of molar 1:1.5) and extended in 40 mM Tris.HCl at pH 8.0, 5 mM MgCl2, 100 μM of each dNTP, 10 mM DTT, 250 μg/ml BSA, 2.5% glycerol, 10 nM primer-template DNA and 0.1 Unit of polymerase at 60° C. for various times.

[4] = test system: primer-template DNA substrates; assay: Processivity primer extension assay with and without trap DNA; conditions: for bound polymerase that extended primers to the end of the template: in the presence of trap DNA (single DNA binding event); for termination probability: positions 6 and 7
Experimental: Processivity was measured using a primer extension assay the presence and absence of trap DNA. Termination probabilities were calculated according to the method of Kokoska et al.
Oligonucleotide primer 32 (5′-GCGGTGTAGAGACGAGTGCGGAG-3′) (SEQ ID NO: 117) was ^32P-labelled and annealed to the template 33 (5′-CTCTCACAAGCAGCCAGGCAAGCTCCGCACTCGTCTCTACACCGCTCCGC-3′ (SEQ ID NO: 118)) (at a primer/template ratio of molar 1/1.5). wtTaq (0.0025 nM; 0.025 nM; 0.25 nM), M1(0.05 nM; 0.5 nM; 5 nM), and M4 (0.05 nM; 0.5 nM; 5 nM) were preincubated with the primer-template DNA substrates (10 nM) in 10 mM Tris-HCl at pH 9.0, 5 mM MgCl2, 50 mM KCl, 0.1% Triton X 100 at 25° C. for 15 min. Reactions were initiated by addition of 100 μM dNTPs with or without trap DNA (1000-fold excess of unlabeled primer-templates). Reactions were performed at 60° C. for 2 min. […] Thus, in the presence of trap DNA, all DNA synthesis resulted from a single DNA binding event. Gel band intensities were calculated using a Phosphoimager and ImageQuant (both Molecular Dynamics) software. Percentage of polymerase molecules, which extended primers to the end of the template was calculated using the formula: In×100%/(I1+I2+ . . . +In), where In is the intensity of the band at position 22 or 23; I1, I2 . . . is the intensity of the band at position 1, 2 . . . . Termination probabilities (τ) were calculated according to the method of Kokoska et al^1, whereby t at a particular template position was calculated as the intensity of the band at this position divided by the sum of the intensity of this band and the band intensities of all longer products.

[5] = 3′-terminal base pair A · A (template base: 3′ primer base)
[6] = 3′-terminal base pair A · G (template base: 3′ primer base)
[7] = 3′-terminal base pair C · C (template base: 3′ primer base)
[8] = 3′-terminal base pair C · G (template base: 3′ primer base), matched
[9] = 3′-terminal base pair G · A (template base: 3′ primer base)
[10] = 3′-terminal base pair G · G (template base: 3′ primer base)

wtTaq: Thermus aquaticus (Taq) wild type DNA polymerase [reference compound]
Vmax [1, 5]: 1.7 % Min^−1
Km ([1]; 3′-terminal base pair A · A): 27.3 µM
Ratio of fext, fext (mutant polymerase)/fext (wtTaq) ([1]; 3′-terminal base pair A · A): 1.0
fext, f (mismatched 3′terminus)/f (matched terminus) ([1]; 3′-terminal base pair A · A): 6.7 × 10^−7
Vmax [1, 6]: 28.0 % Min^−1
Km ([1]; 3′-terminal base pair A · G): 45.2 µM
Ratio of fext, fext (mutant polymerase)/fext (wtTaq) ([1]; 3′-terminal base pair A · G): 1.0
fext, f (mismatched 3′terminus)/f (matched terminus) ([1]; 3′-terminal base pair A · G): 2.1 × 10^−7
Vmax [1, 7]: 0.2 % Min^−1
Km ([1]; 3′-terminal base pair C · C): 39.9 µM
Ratio of fext, fext (mutant polymerase)/fext (wtTaq) ([1]; 3′-terminal base pair C · C): 1.0
fext, f (mismatched 3′terminus)/f (matched terminus) ([1]; 3′-terminal base pair C · C): 5.9 × 10^−8
Km [1, 8]: 0.016 µM
Vmax [1, 8]: 1477.0 % Min^−1
Vmax [1, 9]: 1.6 % Min^−1
Km ([1]; 3′-terminal base pair G · A): 32.8 µM
Ratio of fext, fext (mutant polymerase)/fext (wtTaq) ([1]; 3′-terminal base pair G · A): 1.0
fext, f (mismatched 3′terminus)/f (matched terminus) ([1]; 3′-terminal base pair G · A): 5.4 × 10^−7
Vmax [1, 10]: 20.4 % Min^−1
Km ([1]; 3′-terminal base pair G · G): 174 µM
Ratio of fext, fext (mutant polymerase)/fext (wtTaq) ([1]; 3′-terminal base pair G · G): 1.0
fext, f (mismatched 3′terminus)/f (matched terminus) ([1]; 3′-terminal base pair G · G): 1.3 × 10^−6
extension of 3′ transversion mismatches in PCR [2]: unable to extend
primer extension on undamaged template [3]: efficiently and rapidly extended primers to the end of the template
bound polymerase that extended primers to the end of the template [4]: 13%
termination probability [4]: 5%

B1: M1: Taq mutant G84A, D144G, K314R, E520G, F598L, A608V, E742G; SEQ ID NO: 1 (protein)
chain: MRGMLPLFEPKGRVLLVDGHHLAYRTFHALKGLTTSRGEPVQAVYGFAKSLLKALKEDGDAVIVVFDAKAPSFRHEAYGGYKAARAPTPEDFPRQLALIKELVDLLGLARLEVPGYEADDVLASLAKKAEKEGYEVRILTADKGLYQLLSDRIHVLHPEGYLITPAWLWEKYGLRPDQWADYRALTGDESDNLPGVKGIGEKTARKLLEEWGSLEALLKNLDRLKPAIREKILAHMDDLKLSWDLAKVRTDLPLEVDFAKRREPDRERLRAFLERLEFGSLLHEFGLLESPKALEEAPWPPPEGAFVGFVLSRREPMWADLLALAAAAGGRVHRAPEPYKALRDLKEARGLLAKDLSVLALREGLGLPPGDDPMLLAYLLDPSNTTPEGVARRYGGEWTEEAGERAALSERLFANLWGRLEGEERLLWLYREVERPLSAVLAHMEATGVRLDVAYLRALSLEVAEEIARLEAEVFRLAGHPFNLNSRDQLERVLFDELGLPAIGKTEKTGKRSTSAAVLGALREAHPIVEKILQYRELTKLKSTYIDPLPDLIHPRTGRLHTRFNQTATATGRLSSSDPNLQNIPVRTPLGQRIRRAFIAEEGWLLVVLDYSQIELRVLAHLSGDENLIRVFQEGRDIHTETASWMFGVPREAVDPLMRRAAKTINFGVLYGMSAHRLSQELAIPYEEAQAFIERYFQSFPKVRAWIEKTLEEGRRRGYVETLFGRRRYVPDLEARVKSVRGAAERMAFNMPVQGTAADLMKLAMVKLFPRLEEMGARMLLQVHDELVLEAPKERAEAVARLAKEVMEGVYPLAVPLEVEVGIGEDWLSAKE
modifications: Mutant Thermus aquaticus DNA polymerase
Vmax [1, 5]: 1.5 % Min^−1
Km ([1]; 3′-terminal base pair A · A): 40.9 µM
Ratio of fext, fext (mutant polymerase)/fext (wtTaq) ([1]; 3′-terminal base pair A · A): 3.6
fext, f (mismatched 3′terminus)/f (matched terminus) ([1]; 3′-terminal base pair A · A): 2.4 × 10^−6
Vmax [1, 6]: 44.6 % Min^−1
Km ([1]; 3′-terminal base pair A · G): 280 µM
Ratio of fext, fext (mutant polymerase)/fext (wtTaq) ([1]; 3′-terminal base pair A · G): 6.2
fext, f (mismatched 3′terminus)/f (matched terminus) ([1]; 3′-terminal base pair A · G): 1.3 × 10^−6
Vmax [1, 7]: 9.2 % Min^−1
Km ([1]; 3′-terminal base pair C · C): 25.8 µM
Ratio of fext, fext (mutant polymerase)/fext (wtTaq) ([1]; 3′-terminal base pair C · C): 390
fext, f (mismatched 3′terminus)/f (matched terminus) ([1]; 3′-terminal base pair C · C): 2.3 × 10^−5
Km [1, 8]: 0.02 µM
Vmax [1, 8]: 308.0 % Min^−1
Vmax [1, 9]: 2.4 % Min^−1
Km ([1]; 3′-terminal base pair G · A): 22 µM
Ratio of fext, fext (mutant polymerase)/fext (wtTaq) ([1]; 3′-terminal base pair G · A): 13.3
fext, f (mismatched 3′terminus)/f (matched terminus) ([1]; 3′-terminal base pair G · A): 7.2 × 10^−6
Vmax [1, 10]: 29.6 % Min^−1
Km ([1]; 3′-terminal base pair G · G): 67 µM
Ratio of fext, fext (mutant polymerase)/fext (wtTaq) ([1]; 3′-terminal base pair G · G): 22.5
fext, f (mismatched 3′terminus)/f (matched terminus) ([1]; 3′-terminal base pair G · G): 2.9 × 10^−5
extension of 3′ transversion mismatches in PCR [2]: greatly increased ability to extend; also recorded: generate amplification products
primer extension on undamaged template [3]: efficiently and rapidly extended primers to the end of the template
processivity compared with wtTaq ([4]; even at the lowest enzyme concentrations): processivity equal (or higher) than wtTaq
bound polymerase that extended primers to the end of the template [4]: 28%
termination probability [4]: 1%
